The target of one data set is T1, PET30ΔPorC (Kaistella jeonii, UniProt A0A0C1F4U8).
T1 construct: gene OA86_11720; C-terminal PorC (T9SS) sorting domain 300-366 deleted; signal peptide removed; His-tagged, E. coli host; monomer in asymmetric unit
The experiment in a line: pNP release at […] nm, relative activity. Particulars: 30°C. It is filed as biochemical.

Substrate in the data set “purified protein”: CCCCCC(=O)Oc1ccc([N+](=O)[O-])cc1
Nature of the data set: purified protein. It is filed as biochemical, Kaistella jeonii. Particulars: 30°C, pH 8.

Consider `CCCCCC(=O)Oc1ccc([N+](=O)[O-])cc1` [pNP-C6], for which the “pNP release at 405 nm, relative activity” value on PET30ΔPorC is “Activity tests confirmed that it was not affected in its activities using pNP-C6”.

B1: PET30 (Kaistella jeonii) (protein)
chain: QCTGATVESLTNPGPYTVATLSEADGVRNGPKYAGSTIYYPTNATPPYASIAIVPGFTAAPSSVQEWGPFYASHGIVAIIIGTNSLYDQPEARALALLDALETIKQENGRATSPLIGKLDVTKLAVSGWSMGGGGAQRAAVLDNTISAVVALCPYLTSPQLNHTVPVLIFSGQSDPTAPPSQHANVHYNTTPGTTNKLLFEVKNGNHSVANSPTGGGGAVGKLALSWLKIYLEKNDCYCSVLATAIVNSTTVSSKISQSYQCNNALGVVDSKTRFNLYPNPTKDFVQVNVREMASYQLSSSTGQIVLKGIVTSSKNQIDLSKLPAGVYYLQINGETIKVIKKQ
notes: signal peptide removed, Met added; C-terminal 6xHis (pET21a), E. coli host, Ni-NTA; PorC (T9SS) domain kept
For B1, in the data set “purified protein”, the Km turned out to be 300 µM and the catalytic constant (kcat) came to 8.9 s⁻¹.

In general, Km refers to the concentration of substrate that gives half-maximal velocity. For orientation: kcat means the maximal rate divided by the concentration of active sites.

Values taken from PMC8767016, “The Bacteroidetes Aequorivita sp. and Kaistella jeonii Produce Promiscuous Esterases With PET-Hydrolyzing Activity” (Frontiers in Microbiology, 2022).
